Molecular target: T1, mANGPTL4-His [R26-S410 of mANGPTL4 (SEQ ID NO: 478) fused with an AS linker to a C-terminal 6-histidine tag] (mouse, UniProt Q9Z1P8 26-410)
T1 construct: also called mANGPTL4(26-410)-His
T1 sequence: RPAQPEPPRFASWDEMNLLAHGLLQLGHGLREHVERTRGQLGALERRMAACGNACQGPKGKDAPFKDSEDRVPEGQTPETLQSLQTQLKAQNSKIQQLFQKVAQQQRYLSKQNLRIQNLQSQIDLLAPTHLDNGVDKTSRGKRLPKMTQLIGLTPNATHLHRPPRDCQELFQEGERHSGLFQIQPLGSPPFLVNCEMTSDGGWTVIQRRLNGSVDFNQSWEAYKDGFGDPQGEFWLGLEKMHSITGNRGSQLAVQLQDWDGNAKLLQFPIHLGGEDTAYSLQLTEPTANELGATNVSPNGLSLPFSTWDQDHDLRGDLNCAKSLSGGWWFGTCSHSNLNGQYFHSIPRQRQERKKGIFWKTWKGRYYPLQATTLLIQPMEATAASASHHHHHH
Assay: SPR (Biacore), antigen amine coupled
Procedure: Possible cross-reactivity of the anti-hANGPTL4 antibodies to related proteins, i.e., hANGPTL3, human angiopoietin-like protein 5 (hANGPTL5) and mouse ANGPTL4 (mANGPTL4), was tested for the selected antibodies, i.e., H1H268P and H1H284P, using the BIACORE™ system. Briefly, anti-hANGPTL4 antibodies as well as negative controls, i.e., two monoclonal antibodies (Control a and Control b) that are non-binders to any ANGPTL proteins, were injected at 3.125 μg/mL-50 μg/mL over amine coupled chip surfaces of hANGPTL3-His (R&D Systems, cat #3829-AN) at 5228 RU, hANGPTL4-His (R&D Systems, cat #4487-AN) at 6247 RU, hANGPTL5-His (Abnova Corp., cat #H00253935-P01) at 5265 RU, and mANGPTL4-His [R26-S410 of mANGPTL4 (SEQ ID NO: 478) fused with an AS linker to a C-terminal 6-histidine tag] at 5233 RU, respectively. A polyclonal antibody specific for hANGPTL3 (R&D System, cat #BAF3485) was also tested.

B1: H1H284P (antibody, V domains shown)
VH: QVQLVESGGGVVQPGRSLRLSCAASGFTFSSYGMHWVRQAPGKGLEWMAVISFDGGNKNNADSVKGRFTISRDNSKNTLYLQMNSLRAEDTAVYYCAKEGDRSGHPYFYYYGLDVWGQGTTVTVS
VL: DIQLTQSPSFLSASVGDRVTITCWASQGISSYLAWYQQKPGKAPKLLIYAASTLQSGVPSRFSGSGSETEFTLTISSLQPEDFATYYCQQLHSYPLTFGGGTKVEIK
notes: also called entire H1H284 mAb; Full mAb
binding result: no binding (tested: 3.125 µg/mL-50 µg/mL)

Source: patent US20130266574A1 (Regeneron, published 2013)
